Experimental data: the supplement of paper PMC9732359
± gives the uncertainty stated by the source.

Assay: protein stability index of a GFP-peptide fusion (yeast GPS) (PSI 1-4); higher = more stable; sorted into four equal gates, so the index is relative within each strain
Procedure, shortened: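 Tiled 17-residue yeast protein peptides were fused downstream of GFP in a plasmid that also expresses Cherry, and the pooled library was carried in yeast. Mid-log cultures in leucine-free medium were sorted into four equal gates by GFP/Cherry fluorescence ratio, and plasmids from each gate were PCR-amplified and Illumina-sequenced, with reads assigned to strains by barcodes. The protein stability index for each peptide was each gate's read frequency times its gate number, summed.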

| Sequence | protein stability index (doa10∆) | protein stability index (pdr5∆) | protein stability index (san1∆) | protein stability index (ubr1∆) |
| --- | --- | --- | --- | --- |
| DILAKLFSLEKPNLNYF [SWI1] | 2.02 ± 0.056 | 1.96 ± 0.05 | 1.96 ± 0.063 | 2.08 ± 0.044 |
| HIVQDCTLTADGAYALS [ASC1] | 2.37 ± 0.057 | 2.69 ± 0.062 | 2.52 ± 0.12 | 2.44 ± 0.064 |
| ESSYTEVTKLLKNEGID [SMC4] | 3.1 ± 0.082 | 3.17 ± 0.15 |  | 3.49 ± 0.098 |
| RFFWKRSTNKKSKILRK [UBP6] | 1.19 ± 0.19 |  |  | 1.28 ± 0.16 |
| LVEKVYARFKNDFFPGE [ITC1] | 3.47 ± 0.091 | 3.36 ± 0.1 | 3.05 ± 0.058 | 3.25 ± 0.077 |
| NVFGTLQRHSGISSTLV [YLR018C/POM34] | 2.03 ± 0.09 | 2.01 ± 0.096 | 1.77 ± 0.23 | 3.25 ± 0.27 |
| REKALNEEAEARRLKNR [RPL19A] | 3.21 ± 0.075 | 3.15 ± 0.11 | 3.09 ± 0.095 | 3.24 ± 0.066 |
| SLIENKKAKLVLIANDV [RPL8B] | 2.32 ± 0.13 | 3.23 ± 0.17 | 2.99 ± 0.12 | 2.35 ± 0.14 |
| NTHYHADYRLILTGTPL [SNF2] | 1.31 ± 0.11 | 1.71 ± 0.097 | 1.39 ± 0.12 | 1.75 ± 0.076 |
| TLGKLSTSVGWKYEDVV [RPL16B] | 2.82 ± 0.062 | 2.42 ± 0.069 | 2.71 ± 0.11 | 2.81 ± 0.059 |
| KVDGKVRTDTTYPAGFM [RPS4A] | 3.41 ± 0.13 | 3.18 ± 0.13 | 2.97 ± 0.073 | 3.15 ± 0.11 |
| FDERIKFANQLHDEYLV [RPN3] | 1.65 ± 0.092 | 2.02 ± 0.12 | 1.45 ± 0.14 | 1.36 ± 0.076 |
| TRGPFHFRAPSRILYKA [RPL16B] | 2.3 ± 0.064 | 2.43 ± 0.045 | 2.08 ± 0.068 | 2.27 ± 0.042 |
| FNEENGEDSTKPLGPCD [POP1] | 3.34 ± 0.14 |  |  |  |
| DIPTIADEHFWADNYER [BRN1] | 3.14 ± 0.2 | 3.18 ± 0.1 | 3.34 ± 0.069 | 3.22 ± 0.04 |
| SNLEKLLFINSSKLVDV [YML103C/NUP188] | 2.48 ± 0.094 | 2.07 ± 0.066 | 1.83 ± 0.12 | 2.62 ± 0.082 |
| HVKNFGFANSLTFILGQ [YML031W/NDC1] | 1.56 ± 0.12 | 1.74 ± 0.076 | 1.42 ± 0.13 | 2.27 ± 0.059 |
| FAKFIHHIHHFEKKELQ [IRR1] | 1.72 ± 0.048 | 2.74 ± 0.064 | 2.18 ± 0.12 | 2.13 ± 0.056 |
| YNALFQQNIKFRRDFLL [YJL039C/NUP192] | 2.38 ± 0.096 | 2.02 ± 0.063 | 2.4 ± 0.068 | 2.3 ± 0.055 |
| AILQEKILSILNRSHFA [ECM29] | 1.87 ± 0.05 | 2.15 ± 0.052 | 2.27 ± 0.054 | 2.35 ± 0.051 |
| NNAVRFSKQCLISNAIY [ECM29] | 1.7 ± 0.078 | 2.39 ± 0.088 | 1.82 ± 0.11 | 1.08 ± 0.094 |
| IYSPLHSFIKMLQMKGK [SIR2] | 2.1 ± 0.064 | 1.79 ± 0.058 | 1.91 ± 0.14 | 1.88 ± 0.051 |
| GSSASSRKAHGLNAKQL [POP1] | 3.21 ± 0.069 | 3.27 ± 0.084 | 3.13 ± 0.077 | 3.04 ± 0.066 |
| RRMGILKKILDQCKKQR [RPO31] | 1.63 ± 0.16 | 1.7 ± 0.29 | 1.61 ± 0.23 | 1.9 ± 0.098 |
| RSEFIESLLNWINRSDG [YJR042W/NUP85] |  | 3.11 ± 0.15 | 2.77 ± 0.24 | 3.22 ± 0.22 |
| ETQVEVEKNEIGKMYDE [NNF1] | 3.05 ± 0.19 | 3.21 ± 0.11 | 2.98 ± 0.17 | 3.37 ± 0.13 |
| MAFEASAAAAGNRNSSS [BRR2] | 3.12 ± 0.11 | 3.1 ± 0.11 | 2.35 ± 0.12 | 3.14 ± 0.11 |
